The numbers were not newly measured in paper PMC8569200, which cites them from elsewhere.

This data set has as its target CD137 (Homo sapiens) (UniProt Q07011). The data set is described as follows: SPR. For orientation: In SPR one partner is held on a chip, and binding of the other changes the refractive index at the surface.

CD137 (Homo sapiens), sequence (Q07011 24-255): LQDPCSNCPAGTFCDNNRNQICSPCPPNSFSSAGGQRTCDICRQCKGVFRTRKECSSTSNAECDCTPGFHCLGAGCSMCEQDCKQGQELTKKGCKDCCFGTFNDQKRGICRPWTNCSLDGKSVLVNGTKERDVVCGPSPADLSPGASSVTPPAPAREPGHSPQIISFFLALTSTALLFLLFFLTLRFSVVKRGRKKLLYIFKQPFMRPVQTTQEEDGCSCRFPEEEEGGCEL
CD137L, sequence (P41273 whole entry): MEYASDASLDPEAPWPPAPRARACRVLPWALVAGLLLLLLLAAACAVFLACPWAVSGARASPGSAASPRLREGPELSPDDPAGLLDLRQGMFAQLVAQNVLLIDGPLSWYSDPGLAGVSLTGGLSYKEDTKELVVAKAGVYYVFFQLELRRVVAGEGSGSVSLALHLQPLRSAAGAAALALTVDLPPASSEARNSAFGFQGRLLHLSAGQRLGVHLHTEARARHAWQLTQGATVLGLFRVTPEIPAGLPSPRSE

As usually defined, the Kd is a measure of binding affinity in units of concentration. In the case of CD137L (from UniProt P41273), the dissociation constant Kd was 680 nM.
